Test results as given in patent publication US20210079109A1 (Regeneron, published 2021).

B1: H4H11995P2 (antibody, V domains shown)
VH: EVQLVESGGALVQPGRSLRLSCAASGFTFDDYAMHWVRQAPGKGLEWVSGISWNSGTMGYADSVKGRFTISRDNAKKSLYLQMNSLRAEDTALYYCGKGLLHQWEVLDYWGQGTLVTVSS
VL: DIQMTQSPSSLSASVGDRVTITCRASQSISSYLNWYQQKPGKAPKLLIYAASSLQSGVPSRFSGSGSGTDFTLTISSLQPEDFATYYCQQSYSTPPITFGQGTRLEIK
B2: H2M12392N (antibody, V domains shown)
VH: QVQLVESGGGLVKPGGSLRLSCATSGFTFGDYYMNWFRQAPGKGLDWVSYISSSGSTRYYADSVRGRFTISRDNAKNSLYLQMNSLRAEDTAVYYCVRDLRYYYGMDVWGQGTTVTVSS
VL: not shown
notes: also called H2aM12392N
B3: H2M12454N (antibody, V domains shown)
VH: QVQLVESGGGLVKPGGSLRLSCAVSGFTYTDYFMNWIRQAPGKGLEWVSYISNSGAIKYYADSVKGRFTISRDNAKNSLYLQMNGLRADDTAVYYCVRDPRSYYGFDYWGQGTLVTVSS
VL: DIQMTQSPSSLSASVGDRVTITCRASQSISNFLNWYQQKPGKAPRLLIYGASNLQSGVPSRFSGGGSGTDFTLTISSLQPADFATYYCQQSFSNPPVTFGQGTRLEIN
notes: also called H2bM12454N
B4: H2M12385N (antibody, V domains shown)
VH: QVQLVESGGGLVKPGGSLRLSCAASGFTFTDYFMNWIRQAPGKGLEWVSYISNSGAIKYQADSVKGRFTISRDNAKNSLYLQMNSLRADDTAVYYCVRDPRSYYGFDYWGQGTLVTVSS
VL: DIQMTQSPSSLSASVGDRVTITCRASQSIRNFLNWYQQKPGKAPRLLIYAASSLQSGVPSRFSGGGSGTDFTLTISSLQPEDFATYYCQQSYSNPPITFGQGTRLEIK
notes: also called H2bM12385N; H2bM12385

What was measured:
human CD63 [1] = biological target: T1, human CD63 (human, UniProt P08962 2-238); assay: ECL, U87MG cells
T1 construct: stably transfected in NIH3T3/hCD63; The cell line is named under assay; also called hCD63
T1 sequence: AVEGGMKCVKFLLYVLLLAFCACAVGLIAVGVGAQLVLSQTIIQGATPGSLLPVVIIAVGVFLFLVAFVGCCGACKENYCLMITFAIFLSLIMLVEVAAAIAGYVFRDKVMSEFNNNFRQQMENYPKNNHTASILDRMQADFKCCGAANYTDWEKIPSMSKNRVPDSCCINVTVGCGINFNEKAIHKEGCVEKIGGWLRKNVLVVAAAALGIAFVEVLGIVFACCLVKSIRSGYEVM
Method: (§1) LNCAP cells were determined to have a lower human CD63 copy number than U87MG cells. Non-transfected NIH3T3 cells, which have no detectable expression of human CD63 by fluorescence activated cell sorting (FACS), were included as a negative control.
(§2) Briefly, cell lines were rinsed once in PBS buffer without Ca²⁺/Mg²⁺ and incubated for 10 minutes at 37° C. with Enzyme Free Cell Dissociation Solution (Millipore, Cat #S-004-C) to detach the cells. Cells were then washed once with PBS with Ca²⁺/Mg²⁺ and counted with a Cellometer™ Auto T4 cell counter (Nexcelom Bioscience, LLC). Approximately 2.0×10⁴ NIH3T3/hCD63, LNCAP, U87MG or NIH3T3 cells were seeded separately onto 96-well carbon electrode plates […]) and were then incubated for one hour at 37° C. Nonspecific binding sites were blocked with 2% BSA (w/v) in PBS with Ca²⁺/Mg²⁺ for one hour at room temperature (RT). Solutions containing anti-CD63 antibodies or isotype control antibodies at a range of concentrations (1.7 pM to 100 nM) in 0.5% BSA (w/v) in PBS with Ca²⁺/Mg²⁺, as well as control buffer alone, were then added in duplicate to the plate-bound NIH3T3/hCD63, LNCAP, U87MG or NIH3T3 cells and incubated for one hour at RT. Plates were subsequently washed to remove unbound antibodies using an AquaMax2000 plate washer with a cell washing head (MDS Analytical Technologies). […] Plates were washed and then incubated with Read Buffer (MSD, Cat #R92TD-2) according to the manufacturer's instructions. Luminescent signals were measured using a SECTOR Imager (MSD).

[2] = biological target: T2, recombinant human CD63 extracellular loop 2 expressed with a C-terminal human Fc tag (human); assay: SPR Biacore, mAb captured, 37C
T2 construct: also called hCD63 EC loop 2-hFc; human CD63 EC loop 2-Fc
T2 sequence (chain, as listed by the source limits assumed): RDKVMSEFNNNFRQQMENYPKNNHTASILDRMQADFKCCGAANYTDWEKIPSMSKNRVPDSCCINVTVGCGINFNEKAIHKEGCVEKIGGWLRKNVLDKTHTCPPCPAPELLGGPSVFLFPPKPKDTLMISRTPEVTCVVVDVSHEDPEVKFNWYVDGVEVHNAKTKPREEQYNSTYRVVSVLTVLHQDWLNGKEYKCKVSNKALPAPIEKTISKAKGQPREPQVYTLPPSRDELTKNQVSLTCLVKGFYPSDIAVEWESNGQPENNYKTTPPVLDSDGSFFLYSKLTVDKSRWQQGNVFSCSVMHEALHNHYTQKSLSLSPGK
Method: (§3) Equilibrium dissociation constants (KD) for different CD63 (EC2) loop reagents binding to purified anti-CD63 monoclonal antibodies were determined using a real-time surface plasmon resonance based Biacore T200 biosensor or Biacore 2000 biosensor. All binding studies were performed in 10 mM HEPES, 150 mM NaCl, 3 mM EDTA, and 0.05% v/v Surfactant Tween-20, pH 7.4 (HBS-ET) running buffer at 25° C. and 37° C. The Biacore CMS sensor chip surface was first derivatized by amine coupling with either a rabbit anti-mouse Fc specific polyclonal antibody (GE Healthcare, Cat #BR100838) or an anti-human Fab kit (GE Healthcare, Cat #28958325) to capture anti-CD63 monoclonal antibodies. […] The association rate (Kₐ) and dissociation rate (kd) were determined by fitting the real-time binding sensorgrams to a 1:1 binding model with mass transport limitation using Scrubber 2.0c curve-fitting software. Binding dissociation equilibrium constant (KD) and dissociative half-life (t½) were calculated from the kinetic rates as: […]
(§4) Binding kinetics parameters for human CD63 EC loop 2 protein binding to different anti-CD63 monoclonal antibodies of the invention at 25° C. and 37° C. are shown in Tables 6 through 9.

[3] = biological target: T3, recombinant human CD63 extracellular loop 2 expressed with a C-terminal Myc-Myc-hexahistidine (human); assay: SPR Biacore, mAb captured, 37C
T3 construct: also called hCD63 EC loop 2-MMH; human CD63 EC loop 2-MMH
T3 sequence (chain, as listed by the source limits assumed): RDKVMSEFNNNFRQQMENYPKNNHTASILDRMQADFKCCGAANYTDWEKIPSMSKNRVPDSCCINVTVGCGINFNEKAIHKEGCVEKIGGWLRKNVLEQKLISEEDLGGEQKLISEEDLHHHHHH
Method: as §3, §4

human CD63 [4] = biological target: T1, human CD63; assay: ECL, NIH3T3/hCD63 cells
Method: as §1, §2

human CD63 [5] = biological target: T1, human CD63; assay: ECL, LNCAP cells
Method: as §1, §2

[6] = biological target: T2, recombinant human CD63 extracellular …; assay: SPR Biacore, mAb captured, 25C
Method: as §3, §4

[7] = biological target: T3, recombinant human CD63 extracellular …; assay: SPR Biacore, mAb captured, 25C
Method: as §3, §4

EC50 (human CD63 [1]) | binding ratio at 3.7 nM vs NIH3T3 (human CD63 [1]) | 100 nM Ag Bound (RU) [2] | Kd [2] | koff [2] | kon [2] | t1/2 [2] | 100 nM Ag Bound (RU) [3] | Kd [3] | koff [3] | kon [3] | t1/2 [3] | EC50 (human CD63 [4]) | binding ratio at 3.7 nM vs NIH3T3 (human CD63 [4]) | EC50 (human CD63 [5]) | binding ratio at 3.7 nM vs NIH3T3 (human CD63 [5]) | 100 nM Ag Bound (RU) [6] | Kd [6] | koff [6] | kon [6] | other results | Binder
13 nM | 61 fold | 116 RU | 14.5 nM | 0.0188 s⁻¹ | 1.29e+06 M⁻¹ s⁻¹ | 1 min | 3 RU | 1620 nM | 0.128 s⁻¹ | 79400 M⁻¹ s⁻¹ | 0.1 min | 5 nM | 212 fold | 55 nM | 5 fold | 198 RU | 10.1 nM | 0.00555 s⁻¹ | 552000 M⁻¹ s⁻¹ | t1/2 [6]: 2 min; 100 nM Ag Bound (RU) [7]: 8 RU | B1
0.53 nM | 405 fold | 177 RU | 0.582 nM | 0.000445 s⁻¹ | 765000 M⁻¹ s⁻¹ | 26 min | 68 RU | 7.25 nM | 0.00324 s⁻¹ | 447000 M⁻¹ s⁻¹ | 4 min | 0.4 nM | 608 fold | 0.23 nM | 51 fold | 169 RU | 0.391 nM | 0.000199 s⁻¹ | 510000 M⁻¹ s⁻¹ | t1/2 [6]: 58 min; 100 nM Ag Bound (RU) [7]: 79 RU; Kd [7]: 3.1 nM; koff [7]: 0.000922 s⁻¹; kon [7]: 298000 M⁻¹ s⁻¹; t1/2 [7]: 13 min | B2
0.47 nM | 132 fold | 160 RU | 0.895 nM | 0.000777 s⁻¹ | 868000 M⁻¹ s⁻¹ | 15 min | 56 RU | 10.6 nM | 0.00591 s⁻¹ | 559000 M⁻¹ s⁻¹ | 2 min | 0.32 nM | 175 fold | 0.18 nM | 14 fold | 142 RU | 0.523 nM | 0.00036 s⁻¹ | 688000 M⁻¹ s⁻¹ | t1/2 [6]: 32 min; 100 nM Ag Bound (RU) [7]: 61 RU; Kd [7]: 4.89 nM; koff [7]: 0.00188 s⁻¹; kon [7]: 384000 M⁻¹ s⁻¹; t1/2 [7]: 6 min | B3
0.64 nM | 47 fold | 133 RU | 2.05 nM | 0.0017 s⁻¹ | 827000 M⁻¹ s⁻¹ | 7 min | 44 RU | 40 nM | 0.0109 s⁻¹ | 271000 M⁻¹ s⁻¹ | 1 min | 0.45 nM | 71 fold | 0.29 nM | 5 fold | 121 RU | 1.66 nM | 0.000984 s⁻¹ | 592000 M⁻¹ s⁻¹ | t1/2 [6]: 12 min; 100 nM Ag Bound (RU) [7]: 48 RU; Kd [7]: 10.3 nM; koff [7]: 0.00331 s⁻¹; kon [7]: 322000 M⁻¹ s⁻¹; t1/2 [7]: 3 min | B4
